Where a chain is given by its changes, count along the chain named.
T1: LexA RKG/AAA (Mycobacterium tuberculosis, UniProt P9WHR7 1-236, R75A;K76A;G77A)
T1 sequence: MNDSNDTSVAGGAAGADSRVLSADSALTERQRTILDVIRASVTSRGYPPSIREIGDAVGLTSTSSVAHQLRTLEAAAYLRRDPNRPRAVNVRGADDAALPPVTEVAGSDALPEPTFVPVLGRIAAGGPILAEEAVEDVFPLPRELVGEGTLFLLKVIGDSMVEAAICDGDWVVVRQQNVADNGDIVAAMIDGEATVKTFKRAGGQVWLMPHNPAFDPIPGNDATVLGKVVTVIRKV

B1: Mycobacterium tuberculosis LexA, wild type (natural protein)
chain: T1 sequence with A75R, A76K, A77G
notes: also called Mtb LexA; WT Mtb LexA
B2: Mtb LexAΔ24aa (domain or fragment)
chain: SALTERQRTILDVIRASVTSRGYPPSIREIGDAVGLTSTSSVAHQLRTLERKGYLRRDPNRPRAVNVRGADDAALPPVTEVAGSDALPEPTFVPVLGRIAAGGPILAEEAVEDVFPLPRELVGEGTLFLLKVIGDSMVEAAICDGDWVVVRQQNVADNGDIVAAMIDGEATVKTFKRAGGQVWLMPHNPAFDPIPGNDATVLGKVVTVIRKV
notes: also called ∆24aa variant; LexA∆24aa
B3: Mtb LexAΔ18aa (natural protein)
chain: MNDSNDTSVAGGAAGADSRVLSADSALTERQRTILDVIRASVTSRGYPPSIREIGDAVGLTSTSSVAHQLRTLERKGYLRRDPNRPRAVNVRGPEPTFVPVLGRIAAGGPILAEEAVEDVFPLPRELVGEGTLFLLKVIGDSMVEAAICDGDWVVVRQQNVADNGDIVAAMIDGEATVKTFKRAGGQVWLMPHNPAFDPIPGNDATVLGKVVTVIRKV
notes: also called ∆18aa variant; LexA18aaΔ
B4: Mtb LexA RKG/AAA (natural protein)
chain: T1 sequence
notes: also called RKG/AAA mutant; RKG mutant
B5: dnaE2_44mer SOS box, biotinylated (dsDNA)
DNA 1: ACAACTGCGCTGTATCGAACAATTGTTCGATATACTGTGGAATG
DNA 2: CATTCCACAGTATATCGAACAATTGTTCGATACAGCGCAGTTGT
B6: dnaE2 44mer SOS box, 32P end-labeled (dsDNA)
DNA 1: B5 DNA 1
DNA 2: B5 DNA 2
B7: dnaE2 44mer SOS box, non-biotinylated (dsDNA)
DNA 1: B5 DNA 1
DNA 2: B5 DNA 2

Key:
[1] = molecular target: the molecule itself; experiment: SEC
[2] = molecular target: T1, LexA RKG/AAA; experiment: BLI; pH 7.5; association up to 600 s; BLI: 10 mM HEPES pH 7.5, 50 mM NaCl, 25 C (pH 4 buffer not stated), 1:1 global fit; […]; conditions: protein: recombinant; tags: 6xHis; chain copies: 2; label: 5' biotin on strand 1; blunt
[3] = molecular target: T1, LexA RKG/AAA; experiment: EMSA; 128 nM protein; BLI: 10 mM HEPES pH 7.5, 50 mM NaCl, 25 C (pH 4 buffer not stated), 1:1 global fit; […]; conditions: protein: recombinant; tags: 6xHis; chain copies: 2; label: 32P end label, no biotin; blunt
[4] = molecular target: T1, LexA RKG/AAA; experiment: ANS extrinsic fluorescence quench; ANS, 1:2 ratio; no significant quench; BLI: 10 mM HEPES pH 7.5, 50 mM NaCl, 25 C (pH 4 buffer not stated), 1:1 global fit; […]; conditions: protein: recombinant; tags: 6xHis; chain copies: 2; blunt

Binder | stoichiometry N [1] | further results
B1 | 2 | 
B2 | 2 | 
B3 | 2 | 
B4 | 2 | 
B5 |  | binding result [2]: no binding
B6 |  | binding result [3]: no binding
B7 |  | binding result [4]: no binding

From paper PMC8607333, “Real-time kinetic studies of Mycobacterium tuberculosis LexA–DNA interaction” (Bioscience Reports, 2021)
